{"source": "patent US20240190989A1", "about": "(BEIGENE SWITZERLAND, published 2024)", "binders": {"B1": {"name": "anti-CEA Ab (IgG1) (antibody, V domains shown)", "VH": "QVQLVQSGAEVKKPGASVKVSCKASGYIFTSYYLHWVRQAPGQGLEWIGYINPQTGKTSYAQKFQGRVTMTRDTSTSTVYMELSSLRSEDTAVYYCAREYGNYNYPLDYWGQGTLVTVSS", "VL": "DIQMTQSPSSLSASVGDRVTITCRASENQYGYLAWYQQKPGKVPKLLIYNYKNLVEGVPSRFSGSGSGTDFTLTISSLQPEDVATYYCQHHLGTPYTFGQGTKVEIKR"}, "B2": {"name": "A-CEAxCD137-M3 (Format A with BGA-4712-M3) (bispecific antibody, human IgG1, kappa)", "heavy": "QVQLVQSGAEVKKPGASVKVSCKASGYIFTSYYLHWVRQAPGQGLEWIGYINPQTGKTSYAQKFQGRVTMTRDTSTSTVYMELSSLRSEDTAVYYCAREYGNYNYPLDYWGQGTLVTVSSASTKGPSVFPLAPSSKSTSGGTAALGCLVKDYFPEPVTVSWNSGALTSGVHTFPAVLQSSGLYSLSSVVTVPSSSLGTQTYICNVNHKPSNTKVDKKVEPKSCDKTHTCPPCPAPPAAGPSVFLFPPKPKDTLMISRTPEVTCVVVDVSHEDPEVKFNWYVDGVEVHNAKTKPREEQYNSTYRVVSVLTVLHQDWLNGKEYKCKVSNKALAAPIEKTISKAKGQPREPQVYTLPPSREEMTKNQVSLTCLVKGFYPSDIAVEWESNGQPENNYKTTPPVLDSDGSFFLYSKLTVDKSRWQQGNVFSCSVMHEALHNHYTQKSLSLSPGKGGGGSEVQLLESGGGLVQPGGSLRLSCAASGFTLSAEDVGWVRQAPGKGLEWVSAILDFGGSTYYAESVKGRFTISRDNAKNTLYLQMSSLRAEDTAVYYCARVVYHAGGGVTFDYWGQGTLVTVSS", "light": "DIQMTQSPSSLSASVGDRVTITCRASENQYGYLAWYQQKPGKVPKLLIYNYKNLVEGVPSRFSGSGSGTDFTLTISSLQPEDVATYYCQHHLGTPYTFGQGTKVEIKRTVAAPSVFIFPPSDEQLKSGTASVVCLLNNFYPREAKVQWKVDNALQSGNSQESVTEQDSKDSTYSLSSTLTLSKADYEKHKVYACEVTHQGLSSPVTKSFNRGEC"}, "B3": {"name": "Format A-BGA-7556 (bispecific antibody, human IgG1, kappa)", "heavy": "B2 heavy with W566R, L571Q", "light": "B2 light", "notes": "also called BGA-7556 Format A-CEAxCD137"}, "B4": {"name": "BGA-4712 (anti-huCD137 VH domain antibody as VH-Fc with inert human IgG1 Fc) (Fc fusion)", "chain": "EVQLLESGGGLVQPGGSLRLSCAASGFMLSAEDVGWVRQAPGKGLEWVSAILDFGGSTYYADSVKGRFTISRDNSKNTLYLQMNSLRAEDTAVYYCARVVYHAGGGVTFDYWGQGTLVTVSSGGGGSDKTHTCPPCPAPPAAGPSVFLFPPKPKDTLMISRTPEVTCVVVDVSHEDPEVKFNWYVDGVEVHNAKTKPREEQYNSTYRVVSVLTVLHQDWLNGKEYKCKVSNKALAAPIEKTISKAKGQPREPQVYTLPPSREEMTKNQVSLTCLVKGFYPSDIAVEWESNGQPENNYKTTPPVLDSDGSFFLYSKLTVDKSRWQQGNVFSCSVMHEALHNHYTQKSLSLSPGK"}, "B5": {"name": "Urelumab analog (antibody, human IgG4 S228P, kappa, V domains shown)", "VH": "QVQLQQWGAGLLKPSETLSLTCAVYGGSFSGYYWSWIRQSPEKGLEWIGEINHGGYVTYNPSLESRVTISVDTSKNQFSLKLSSVTAADTAVYYCARDYGPGNYDWYFDLWGRGTLVTVSS", "VL": "EIVLTQSPATLSLSPGERATLSCRASQSVSSYLAWYQQKPGQAPRLLIYDASNRATGIPARFSGSGSGTDFTLTISSLEPEDFAVYYCQQRSNWPPALTFGGGTKVEIKR", "notes": "also called Urelumab analog antibody"}}, "key": {"[1]": {"biological_target": "T1, full-length human CD137 on cells (Hut78/huCD137, HEK293 transfectants, JK-NFKB-CD137) (human, UniProt Q07011 24-255)", "T1 construct": "also called native CD137; TNFRSF9", "T1 sequence (Q07011 24-255 limits assumed)": "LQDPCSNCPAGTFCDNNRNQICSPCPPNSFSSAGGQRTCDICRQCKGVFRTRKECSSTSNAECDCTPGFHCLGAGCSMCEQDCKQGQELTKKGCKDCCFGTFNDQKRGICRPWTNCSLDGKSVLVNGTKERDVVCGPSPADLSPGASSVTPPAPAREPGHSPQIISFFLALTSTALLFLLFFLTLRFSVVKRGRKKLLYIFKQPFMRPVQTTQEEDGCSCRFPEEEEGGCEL", "test": "flow cytometry on Hut78/huCD137 cells [panel B]"}, "[2]": {"biological_target": "T1, full-length human CD137 on cells …", "test": "flow cytometry on Hut78/huCD137 cells"}, "[3]": {"biological_target": "T2, human CD137 ECD-mIgG2a (human)", "T2 construct": "ECD 24-183 of huCD137 fused to mouse IgG2a Fc; also called huCD137-mIgG2a; huCD137", "T2 sequence (chain, as listed by the source limits assumed)": "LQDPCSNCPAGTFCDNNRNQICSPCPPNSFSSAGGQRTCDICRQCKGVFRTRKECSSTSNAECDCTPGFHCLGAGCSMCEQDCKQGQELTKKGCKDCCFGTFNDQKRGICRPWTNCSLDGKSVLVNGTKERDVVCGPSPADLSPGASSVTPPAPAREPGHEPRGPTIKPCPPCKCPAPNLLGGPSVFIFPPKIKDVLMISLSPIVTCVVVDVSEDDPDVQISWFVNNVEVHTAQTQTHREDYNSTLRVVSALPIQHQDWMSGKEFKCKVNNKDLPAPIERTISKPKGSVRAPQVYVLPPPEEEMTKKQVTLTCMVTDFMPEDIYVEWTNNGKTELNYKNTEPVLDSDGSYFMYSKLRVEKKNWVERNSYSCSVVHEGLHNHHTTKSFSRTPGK", "test": "SPR, A-CEAxCD137 format"}, "[4]": {"biological_target": "T2, human CD137 ECD-mIgG2a", "test": "SPR, Format A-CEAxCD137; Format A-CEAxCD137, not Fc fusion VH"}, "[5]": {"biological_target": "T2, human CD137 ECD-mIgG2a", "test": "SPR, Format A-CEAxCD137"}, "[6]": {"biological_target": "T1, full-length human CD137 on cells …", "test": "flow cytometry on Hut78/huCD137 cells [panel A]"}, "[7]": {"biological_target": "T3, full-length human CEA on cells (MKN45, LOVO, L929/huCEA, CT26/CEA, CT26-OS8-CEA) (human, UniProt P06731 35-685)", "T3 construct": "also called CEACAM5; native CEA", "T3 sequence": "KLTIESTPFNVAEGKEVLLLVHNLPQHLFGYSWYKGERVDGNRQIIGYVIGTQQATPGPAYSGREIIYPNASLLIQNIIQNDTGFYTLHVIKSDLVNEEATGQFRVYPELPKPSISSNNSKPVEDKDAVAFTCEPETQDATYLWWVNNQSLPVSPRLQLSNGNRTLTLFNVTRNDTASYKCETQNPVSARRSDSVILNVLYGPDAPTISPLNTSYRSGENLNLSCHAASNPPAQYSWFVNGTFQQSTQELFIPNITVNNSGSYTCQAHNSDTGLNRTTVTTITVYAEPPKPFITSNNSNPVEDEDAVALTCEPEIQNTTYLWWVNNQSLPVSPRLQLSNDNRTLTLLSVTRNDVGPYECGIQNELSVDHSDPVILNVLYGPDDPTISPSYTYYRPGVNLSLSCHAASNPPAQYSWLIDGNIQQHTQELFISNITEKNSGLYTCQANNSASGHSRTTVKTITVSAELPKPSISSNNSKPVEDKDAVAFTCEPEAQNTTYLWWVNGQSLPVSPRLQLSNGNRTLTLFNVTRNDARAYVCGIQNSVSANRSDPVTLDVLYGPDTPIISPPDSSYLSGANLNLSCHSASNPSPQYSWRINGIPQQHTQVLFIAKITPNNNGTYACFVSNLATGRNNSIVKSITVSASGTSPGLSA", "test": "flow cytometry on CT26/CEA cells [panel A]"}, "[8]": {"biological_target": "T4, human CD40 ECD-mIgG2a (human)", "T4 construct": "also called TNFRSF5(CD40)", "T4 sequence (chain, as listed by the source limits assumed)": "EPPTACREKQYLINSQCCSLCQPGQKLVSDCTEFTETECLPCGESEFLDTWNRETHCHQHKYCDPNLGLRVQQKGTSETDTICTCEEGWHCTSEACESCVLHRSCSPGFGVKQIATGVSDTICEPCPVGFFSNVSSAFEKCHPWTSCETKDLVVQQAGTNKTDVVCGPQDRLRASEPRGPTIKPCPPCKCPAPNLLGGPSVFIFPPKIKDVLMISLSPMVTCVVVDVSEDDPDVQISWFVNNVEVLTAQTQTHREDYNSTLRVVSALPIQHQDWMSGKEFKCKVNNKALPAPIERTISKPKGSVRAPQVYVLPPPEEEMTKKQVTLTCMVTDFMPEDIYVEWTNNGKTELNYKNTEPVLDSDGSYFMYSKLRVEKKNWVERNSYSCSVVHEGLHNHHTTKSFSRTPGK", "test": "antigen ELISA, antigens coated at 10 µg/ml"}, "[9]": {"biological_target": "T5, TNFRSF1B (CD120b), Sino Biological (UniProt P20333 23-257)", "T5 sequence (looked up)": "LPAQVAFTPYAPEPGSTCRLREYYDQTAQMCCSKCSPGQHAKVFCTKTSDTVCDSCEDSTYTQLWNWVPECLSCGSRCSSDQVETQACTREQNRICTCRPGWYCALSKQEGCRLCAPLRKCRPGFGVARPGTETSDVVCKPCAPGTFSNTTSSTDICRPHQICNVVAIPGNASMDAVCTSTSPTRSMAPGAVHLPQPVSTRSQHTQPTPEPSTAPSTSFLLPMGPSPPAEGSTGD", "test": "antigen ELISA, antigens coated at 10 µg/ml"}, "[10]": {"biological_target": "T6, TNFRSF1A (CD120a), Sino Biological (UniProt P19438 30-211, limits assumed)", "T6 construct": "also called TNFRSF1A(CD12.a)", "T6 sequence (looked up)": "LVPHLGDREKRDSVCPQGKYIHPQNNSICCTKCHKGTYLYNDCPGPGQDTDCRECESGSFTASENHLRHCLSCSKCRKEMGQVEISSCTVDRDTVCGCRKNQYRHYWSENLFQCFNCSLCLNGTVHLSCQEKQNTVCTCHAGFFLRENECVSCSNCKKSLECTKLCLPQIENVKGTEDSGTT", "test": "antigen ELISA, antigens coated at 10 µg/ml"}, "[11]": {"biological_target": "T7, human OX40 ECD-His (human, UniProt P43489 29-216)", "T7 construct": "also called human OX40-his; TNFRSF4(OX40)", "T7 sequence": "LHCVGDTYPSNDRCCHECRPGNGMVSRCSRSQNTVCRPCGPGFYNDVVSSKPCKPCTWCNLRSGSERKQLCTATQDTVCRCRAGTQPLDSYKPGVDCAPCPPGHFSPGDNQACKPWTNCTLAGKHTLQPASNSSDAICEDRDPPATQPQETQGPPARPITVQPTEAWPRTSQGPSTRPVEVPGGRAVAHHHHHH", "test": "antigen ELISA, antigens coated at 10 µg/ml"}, "[12]": {"biological_target": "T1, full-length human CD137 on cells …", "test": "flow cytometry on Hut78/huCD137 cells: serially diluted antibody against human CD137 ligand ECD-mIgG2a, bound ligand detected with goat anti-murine IgG-APC [panel B]"}}, "note": "Changes are numbered by the printed parent chain."}
{"binder": "B1", "values": [{"measurement": "binding result", "setting": "[1]", "result": "no binding (tested: last point just above 10^2 ug/ml)"}]}
{"binder": "B2", "values": [{"measurement": "EC50", "setting": "[2]", "result": 0.52, "unit": "µg/mL"}, {"measurement": "Kd", "setting": "[3]", "result": 289, "unit": "nM"}, {"measurement": "Kd", "setting": "[4]", "result": 255, "unit": "nM"}]}
{"binder": "B3", "values": [{"measurement": "EC50", "setting": "[2]", "result": 3.23, "unit": "µg/mL"}, {"measurement": "Kd", "setting": "[5]", "result": 669, "unit": "nM"}, {"measurement": "Kd", "setting": "[3]", "result": 649, "unit": "nM"}]}
{"binder": "B4", "values": [{"measurement": "EC50 (read off the curve)", "setting": "[6]", "result": "~3", "unit": "µg/mL"}, {"measurement": "binding result", "setting": "[7]", "result": "no binding (tested: last point just above 10^2 ug/ml)"}]}
{"binder": "B5", "values": [{"measurement": "binding result", "setting": "[8]", "result": "no binding (tested: not shown)"}, {"measurement": "binding result", "setting": "[9]", "result": "no binding (tested: not shown)"}, {"measurement": "binding result", "setting": "[10]", "result": "no binding (tested: not shown)"}, {"measurement": "binding result", "setting": "[11]", "result": "no binding (tested: not shown)"}, {"measurement": "IC50 (read off the curve)", "setting": "[12]", "result": "~0.03", "unit": "µg/mL"}]}
